This is an account of results in US20250334594A1 (ELEDON PHARMACEUTICALS, published 2025).

Test [1] has as its target recombinant human FcγRI (human) (UniProt P12314). Description: ELISA: antibody coated (2 µg/ml), recombinant human FcγRI titrated, mouse anti-CD64 + HRP anti-mouse IgG, A450. For orientation: In an ELISA, binding on a coated surface is turned into a signal by an enzyme label.
Test [2] concerns the target control protein CTLA4-IgG1 (UniProt P16410 38-161, limits assumed). Description: sandwich ELISA: protein coated (2 µg/ml), huCD40L titrated, biotinylated goat anti-CD40L polyclonal + streptavidin-HRP, A450.
Description: All washes were performed using 3 washes of 250 μl of PBS. […] The plate was washed and then blocked with 2% bovine serum albumin/PBS for 1 hour at room temperature. The plate was washed and recombinant human CD40L protein (Santa Cruz Biotechnology, Santa Cruz, California, USA) was added to the plate titrated out by 2-fold dilution starting at 2000 ng/ml. After binding and washing, the bound CD40L protein was detected using 100 μl a biotinylated goat anti-human CD40L polyclonal antibody (200 ng/ml) and 100 μl a streptavidin-horseradish peroxidase conjugate at 100 ng/ml. Colorimetric detection was performed with the chromagen TMB (3,3′,5,5′-tetramethylbenzidine) and spectrophotometric analysis of absorption at 450 nm.

Sequence of control protein CTLA4-IgG1 (P16410 other isoform, or with tags, fused parts or gaps limits assumed): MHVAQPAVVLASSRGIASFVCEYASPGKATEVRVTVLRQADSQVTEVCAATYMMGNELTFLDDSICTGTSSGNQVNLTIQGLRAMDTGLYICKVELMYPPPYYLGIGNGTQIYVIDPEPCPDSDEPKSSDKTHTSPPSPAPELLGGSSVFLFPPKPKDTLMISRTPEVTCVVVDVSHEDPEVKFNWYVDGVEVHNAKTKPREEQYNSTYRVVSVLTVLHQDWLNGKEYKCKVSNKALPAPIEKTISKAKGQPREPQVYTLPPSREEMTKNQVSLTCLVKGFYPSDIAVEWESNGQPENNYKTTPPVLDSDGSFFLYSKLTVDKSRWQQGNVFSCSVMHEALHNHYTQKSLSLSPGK
Sequence of recombinant human FcγRI (human) (P12314 16-288 limits assumed): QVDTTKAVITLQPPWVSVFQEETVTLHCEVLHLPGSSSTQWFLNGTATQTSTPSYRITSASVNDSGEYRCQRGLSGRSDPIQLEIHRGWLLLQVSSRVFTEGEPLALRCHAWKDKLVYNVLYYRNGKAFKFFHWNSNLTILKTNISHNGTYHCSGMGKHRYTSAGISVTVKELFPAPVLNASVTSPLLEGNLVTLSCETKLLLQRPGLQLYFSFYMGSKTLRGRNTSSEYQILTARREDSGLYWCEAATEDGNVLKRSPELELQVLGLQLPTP

As to “anti-CD40L antibody 5c8 (reference antibody)”, the EC50 (read off the curve) (commonly the concentration that produces a half-maximal response) in test [1] came to 0.2 µg/mL.

B1: recombinant human CD40L protein (Santa Cruz Biotechnology) (ligand, UniProt P29965 113-261, looked up)
chain: MQKGDQNPQIAAHVISEASSKTTSVLQWAEKGYYTMSNNLVTLENGKQLTVKRQGLYYIYAQVTFCSNREASSQAPFIASLCLKSPGRFERILLRAANTHSSAKPCGQQSIHLGGVFELQPGASVFVNVTDPSQVSHGTGFTSFGLLKL
notes: Bought reagent; also called CD154
With B1, the binding result in test [2] was “no binding (tested: 2 micrograms/mL)”.
